According to patent US20130209454A1 (CALIFORNIA INSTITUTE OF TECHNOLOGY, published 2013):
Read-outs that look alike come from different tables or passages of the source.

Tests used:
Test in all cases: cell-based or functional assay
[1] = target: HIV-1 strain AC10.0.29 envelope (gp120) (HIV-1)
[2] = target: HIV-1 strain Du172.17 envelope (gp120) (HIV-1)
[3] = target: HIV-1 strain CAP210.2.00.E8 envelope (gp120) (HIV-1)
[4] = target: HIV-1 strain CAP45.2.00.G3 envelope (gp120) (HIV-1)
[5] = target: HIV-1 strain TRO.11 envelope (gp120) (HIV-1)
[6] = target: HIV-1 strain SC422661.8 envelope (gp120) (HIV-1)
[7] = target: HIV-1 Env of strain QH0692.42 (HIV-1)
[8] = target: HIV-1 Env of strain TRO.11 (HIV-1)
[9] = target: HIV-1 Env of strain SC422661.8 (HIV-1)
[10] = target: HIV-1 Env of strain ZM214M.PL15 (HIV-1)
[11] = target: HIV-1 Env of strain T257-31 (HIV-1)
[12] = target: HIV-1 Env of strain AC10.0.29 (HIV-1)
[13] = target: HIV-1 Env of strain CAP45.2.00.G3 (HIV-1)
[14] = target: HIV-1 strain ZM214M.PL15 envelope (gp120) (HIV-1)
[15] = target: HIV-1 strain AC10.0.29 envelope (gp120) (HIV-1); remark: listed apart in the source
[16] = target: HIV-1 strain CAP45.2.00.G3 envelope (gp120) (HIV-1); remark: listed apart in the source
[17] = target: HIV-1 strain QH0692.42 envelope (gp120) (HIV-1)
[18] = target: HIV-1 strain TRO.11 envelope (gp120) (HIV-1); remark: listed apart in the source
[19] = target: HIV-1 strain SC422661.8 envelope (gp120) (HIV-1); remark: listed apart in the source
[20] = target: HIV-1 strain T257-31 envelope (gp120) (HIV-1)

Binder | neutralization IC50 [1] [µg/mL] | neutralization IC50 [2] [µg/mL] | neutralization IC50 [3] [µg/mL] | neutralization IC50 [4] [µg/mL] | neutralization IC50 [5] [µg/mL] | neutralization IC50 [6] [µg/mL] | also measured
3BNC60 IgG (antibody, V domains shown) VH: QVHLSQSGAAVTKPGASVRVSCEASGYKISDHFIHWWRQAPGQGLQWVGWINPKTGQPNNPRQFQGRVSLTRQASWDFDTYSFYMDLKAVRSDDTAIYFCARQRSDFWDFDVWGSGTQVTVSS VL: DIQMTQSPSSLSARVGDTVTITCQANGYLNWYQQRRGKAPKLLIYDGSKLERGVPARFSGRRWGQEYNLTINNLQPEDVATYFCQVYEFIVPGTRLDLKRTVA | 13 | 0.05 | 4.7 | 10 | 0.07 | 0.1 | 
3BNC117 IgG (antibody, V domains shown) VH: QVQLLQSGAAVTKPGASVRVSCEASGYNIRDYFIHWWRQAPGQGLQWVGWINPKTGQPNNPRQFQGRVSLTRHASWDFDTFSFYMDLKALRSDDTAVYFCARQRSDYWDFDVWGSGTQVTVSS VL: DIQMTQSPSSLSASVGDTVTITCQANGYLNWYQQRRGKAPKLLIYDGSKLERGVPSRFSGRRWGQEYNLTINNLQPEDIATYFCQVYEFVVPGTRLDLKRTVA | 6.5 | 0.04 | 11 | 16 | 0.6 | 0.07 | 
12A12 IgG (antibody, V domains shown) VH: SQHLVQSGTQVKKPGASVRISCQASGYSFTDYVLHWWRQAPGQGLEWMGWIKPVYGARNYARRFQGRINFDRDIYREIAFMDLSGLRSDDTALYFCARDGSGDDTSWHLDPWGQGTLVIVSA VL: DIQMTQSPSSLSASVGDRVTITCQAGQGIGSSLQWYQQKPGKAPKLLVHGASNLHRGVPSRFSGSGFHTTFSLTISGLQRDDFATYFCAVLEFFGPGTKVEIKR | 0.6 | 0.2 | > 50 | 0.4 | 0.3 | 0.2 | 
3BNC55 IgG (antibody, V domains shown) VH: QVQLVQSGTAVKRPGASVRVSCQASGYTFTDYFIYWWRQAPGQGLEWLGWINPLTSQPSYPSRFQGRLTLTRDTFDEMLYMDLRGLRSDDTGIYFCARRHSDYCDFDIWGSGTQIIVSS VL: DIQMTQSPSSLSASVGDKVTITCQTSAGYLNWYQQRRGRAPKLLMYDGSRLVTGVPSRFSGRRWGTQYNLTIGSLQPEDIATYYCQVYEFFGPGTRLDLKS | > 50 | 2 | > 50 | > 50 | 7.6 | 0.3 | 
NIH45-46 Δ99a-99d IgG (antibody, V domains shown) VH: QVRLSQSGGQMKKPGESMRLSCRASGYEFLNCPINWIRLAPGRRPEWMGWLKPRGGAVNYARKFQGRVTMTRDVYSDTAFLELRSLTSDDTAVYFCTRGKYCTYNWDFEHWGRGAPVTVSS VL: EIVLTQSPATLSLSPGETAIISCRTSQSGSLAWYQQRPGQAPRLVIYSGSTRAAGIPDRFSGSRWGADYNLSISNLESGDFGVYYCQQYEFFGQGTKVQVDI |  |  |  |  |  |  | neutralization IC50 [7]: 3.7 µg/mL; neutralization IC50 [8]: > 50 µg/mL; neutralization IC50 [9]: 1.4 µg/mL; neutralization IC50 [10]: 2.2 µg/mL; neutralization IC50 [11]: 7 µg/mL; neutralization IC50 [12]: 13 µg/mL; neutralization IC50 [13]: > 50 µg/mL
NIH45-46 heavy chain paired with the VRC01 light chain (IgG) (antibody, V domains shown) VH: QVRLSQSGGQMKKPGESMRLSCRASGYEFLNCPINWIRLAPGRRPEWMGWLKPRGGAVNYARKFQGRVTMTRDVYSDTAFLELRSLTSDDTAVYFCTRGKYCTARDYYNWDFEHWGRGAPVTVSS VL: EIVLTQSPGTLSLSPGETAIISCRTSQYGSLAWYQQRPGQAPRLVIYSGSTRAAGIPDRFSGSRWGPDYNLTISNLESGDFGVYYCQQYEFFGQGTKVQVDI |  |  |  |  |  |  | neutralization IC50 [14]: 0.6 µg/mL; neutralization IC50 [15]: 1 µg/mL; neutralization IC50 [16]: 2.1 µg/mL; neutralization IC50 [17]: 0.9 µg/mL; neutralization IC50 [18]: 0.3 µg/mL; neutralization IC50 [19]: 0.2 µg/mL; neutralization IC50 [20]: 0.6 µg/mL
